20 sequences from the DeepSol protein solubility set can be followed below.

The nature of this data set: soluble on expression in E. coli; label from the status in PepcDB or PDB records.
Turning to “MSLGNVGHLITPAIPLDYGELLAAPVTSSESMAQLRGRWIVLSVADGPCAEVCRQNLYKTRQMRLMLNKEIPRVRRLLLLTDPGAADALADWLRQDEFLAVAGLAPTLREKLEKAVGGPLQPGQILLLDPLGNLMMYYDADFDPYGVLKDLKHLLRASQIGEGHHHHHH”, the “soluble on expression in E. coli” value was “soluble”.
Take “MERIERISEEIKREISDIIQNELKDPRLSKLISITEVNVTKDLRYAKVYVSVMGSEEEKANSLEGLKSAAGFIRREIGRRVQLRYTPEIHFELDNSIERGAYITKLINETSAQNKGSKDPEDT”: the “soluble on expression in E. coli” value is “soluble”.
For “MIEGKTLVVNPFIGGSAKNITDEQYISILKKIKEKMPDLNIIITSYTTDEERTEKLCKDIGKDKIFAFSNGASILNTASIIDRADVYFGASTGPTHIAGALGKKIVAIYPHKKTQSPTRWGVLGNSNVRYIIPDENNPNEDYKNPYLEHHHHHH”, the “soluble on expression in E. coli” value is recorded as “not soluble”.
Then “MESIEQQLTELRTTLRHHEYLYHVMDAPEIPDAEYDRLMRELRELETKHPELITPDSPTQRVGAAPLAAFSQIRHEVPMLSLDNVFDEESFLAFNKRVQDRLKNNEKVTWCCELKLDGLAVSILYENGVLVSAATRGDGTTGEDITSNVRTIRAIPLKLHGENIPARLEVRGEVFLPQAGFEKINEDARRTGGKVFANPRNAAAGSLRQLDPRITAKRPLTFFCYGVGVLEGGELPDTHLGRLLQFKKWGLPVSDRVTLCESAEEVLAFYHKVEEDRPTLGFDIDGVVIKVNSLAQQEQLGFVARAPRWAVAFKFPAQEQMTFVRDVEFQVGRTGAITPVARLEPVHVAGVLVSNATLHNADEIERLGLRIGDKVVIRRAGDVIPQVVNVVLSERPEDTREVVFPTHCPVCGSDVERVEGEAVARCTGGLICGAQRKESLKHFVSRRAMDVDGMGDKIIDQLVEKEYVHTPADLFKLTAGKLTGLERMGPKSAQNVVNALEKAKETTFARFLYALGIREVGEATAAGLAAYFGTLEALEAASIEELQKVPDVGIVVASHVHNFFAEESNRNVISELLAEGVHWPAPIVINAEEIDSPFAGKTVVLTGSLSQMSRDDAKARLVELGAKVAGSVSKKTDLVIAGEAAGSKLAKAQELGIEVIDEAEMLRLLGS”, with “soluble”; and “MTNHPIQGLMTTAMENLKQMIDVNTIIGDPVETPDGSVILTVSKVGFGFAAGGSEFMLDGQQNGHQGAQADGNGHPFGGGSGGGVSITPIAFLVVNSSGVKLLHLDESTHLYEKILDVAPQAFEKIQAMLKKNKKDGAAGQKADDFDI”, with “not soluble”; and “SDLWVQKMKTYFNRIDFDKDGAITRMDFESMAERFAKESEMKAEHAKVLMDSLTGVWDNFLTAVAGGKGIDETTFINSMKEMVKNPEAKSVVEGPLPLFFRAVDTNEDNNISRDEYGIFFGMLGLDKTMAPASFDAIDTNNDGLLSLEEFVIAGSDFFMNDGDSTNKVFWGPLV”, with “soluble”.
With “MTATSSPTTRFTDRVVLITGGGSGLGRATAVRLAAEGAKLSLVDVSSEGLEASKAAVLETAPDAEVLTTVADVSDEAQVEAYVTATTERFGRIDGFFNNAGIEGKQNPTESFTAAEFDKVVSINLRGVFLGLEKVLKIMREQGSGMVVNTASVGGIRGIGNQSGYAAAKHGVVGLTRNSAVEYGRYGIRINAIAPGAIWTPMVENSMKQLDPENPRKAAEEFIQVNPSKRYGEAPEIAAVVAFLLSDDASYVNATVVPIDGGQSAAY”, the “soluble on expression in E. coli” value was “soluble”.
As for “MAHHHHHHMGGHGGLNILPQKKWNVYRKDAQYKVHYDEHKIIKEEKDKEIKRKKDEFESTISTLKKNMTKNEDSDNNYNNFYDENGEKKTTTNYCNDHINLFIDEEKELTAKQKKHEEFLIKKGHYIYYDKNFNTQHNSIYDKNKNAQIISDFNKMKLCERDWFLNKKNKNEKTKDNGANFFHIQKDNISEEHNKTENINSDLSLYCNTNNYITHDKKKEKKQMHYHIKKIIKYKQEKDKEKKRKRQGKEKKKPK”, the “soluble on expression in E. coli” value is on record as “not soluble”.
With “MSLNLTFKKKSFFFKLSSKVDNSNTTYNYKSGWIIKLKNIEKGVGFGEVNPLRKHDLDACQIQLNQIPKYVNSKNISELIKNFHPCIQSAINSALAEIERKINFQENYYFNEIDQTAILLDPHNALKELIILKGNKLLNKKSLTIKWKVGIQDNFSEEKTLIEILNHLKSNIKLRIDANGSWERETANRWVDILKDIENIDWLEQPLSKDDIEGLKELNKKMPIALDESLLKYPYLINEWDGWQIRRPSQERNPMQLLKELKDKKGFRSLSTSFETGIGRRWLFHLSSLQLLGLTPKVPGLALKKNPNSFLFQNDAQKIWDQLEGHHHHHH” the entry was “not soluble”.
As to “MESFIDRITEETDENFRICRENIPNFETTISPLLNTMKNIKLLLDDAAFDQQKLENNCEETCMNCTKSQLNDFLGIKVEASTIVDVKSQLVPQSKESSALVETNEPNEQGLSSKPKENDIRIVPQITDEEFKTIPKYQLGRLTLEMMNEIVSKMDDFLMKKSKILGKTNKQLTRSDREVLDNWRELEMKARKRLPTTLFFIETDIRPMLQDRLRPSFAKAIPCLRHIRRIREERCGPLTFYYP”, the “soluble on expression in E. coli” value is on record as “not soluble”.
With “MSLTMYADLVLHGGSIATLDDKLEQAQAVAIAAGRIIAVGSDAHCLALAGPGTRRIGLGGACVMPGINDSHCHPDGQAVKAGRWDDVSQVATQQALLARIADFHRRMPAGAWYLGFRFDDTHSGGYPARQALEQAAPGRPVFLLRRDAQVGLASAPALAALLASGLATQVPPHCLDAATGLARGRGVFAFTTHIAAADSLDDYLEGFPTLFAEMGRMGITSVHNALTSALAVQAYRALHGAGRLPVRVGMMLNGRDQRLVDETLAAGLRFGAGDDRLYLLGVEYGSDGSTSGRTAAYYQPYVGEEGGDGRPANRGDVNFSAEDLAAKVGRVMAAGLQAAATGNGDRGIDFALDAFEQGLRAHPGAVPPRIEHCCCAPPAIQQRMAALGVIDSSAAGFAYNLGDAYLRNRPSAEMAWMWPHRDMLDRGVLVCAHSDAPVCERNPFLGMWSMVTRKTASGASLGAGQAITPLEAMRCYTANPARAEGQAARKGTLSPGKLADLIVLDRDPCAVDPDEIRHTQVLATLVGGQATYRAAGAPSWADELPMREEGHHHHHH”, the “soluble on expression in E. coli” value was “soluble”.
Consider “MIKKVLIANRGEIAVRIIRACKEMDIETVAIYSEADKESLHVQIADEAYCVGPTISKESYLNLTNIISVAKLTGCDAIHPGYGFLAENADFAELCRECNLIFIGPSPEAISKMGTKDVARDTMKEAGVPIVPGSQGIIKNTEEAIELANQIGYPVIIKATAGGGGKGIRVARHEEELVKGIQITQQEASTAFGNPGVYLEKYVEDFRHVEIQIMADTHGNAIHLGERDCTIQRRLQKLLEESPSPALDENVRKQMGEAAVKAAVAVDYTGAGTVEFIYEYKTKSFYFMEMNTRIQVEHPVTEMVTGVDLIKEQILVASGEKLSLQQEEVQFNGWAIECRINAENPAKKFMPSPGKVEMYLPPGGFGIRVDSAVYPGYSIPPFYDSMVAKLIVHGKTREEAIAKMKRALSEFVVEGVHTTIPFHLQLLDHPDFVKGEFNTKFLEEHELVTQ”, for which the “soluble on expression in E. coli” value was “not soluble”.
Regarding “LDARFSDAESNSGLTKATTDTLEAYLDVNEDGTWEVDNFLKKSVDKQHGWMQIIDSEGNTDYSYGVPKDVPGTYTKKELLSIYKTKKLHNYKLNYWAINIEDKSYLLLSGWKSKSEQLLTSVEKREQKIDSLAHYKSSTIDYIKRKKGAIYLLDSNGKILDSINSTKSERKTMNQLELLKYSSKPWNYKREISVKILNKDRWMVATVPNPVYVTDQEFNKSFLK”, the “soluble on expression in E. coli” value is recorded as “not soluble”.
In the case of “MTTFNYTNILTQAVDELSESQSYKGLFHQHKDGDPLPSAKSLYKIVELARAIIFPGYFGNSTVNSHTINYHIGVNVETLFGLLTEQILAGLCFGQENSKNATDDNEPCRETASLLAARFISKLPELRRILATDVEAAYYGDPAATCFGEIISCYPAIRAISNYRIAHELLILGVPLIPRFITEMAHSETGIDIHPGAQIGHHFTIDHGTGVVIGATSIIGNNVKLYQGVTLGAKSFPLDNNGNPIKGIPRHPILEDDVIVYSNATILGRVTIGKGATVGGNIWVTENVPAGSRIVQRKNKDELEHHHHHH”, the “soluble on expression in E. coli” value was “soluble”.
In the case of “MSDDKKSLINIELLPKELITNLFGPATKSIGEGLGGIVNYVVGPLRKLNVVSEKSYIDFVEKINSKTDSIPVDNRDDSKLGFALKTMEDARYQLEDEDMREYFSNLLAGLVDNRKNQDSSPRFSIILSELTTIDANLLKKLYKLSITPTIKVRVQAPNGNGIDYIENLILTQKGIVENNFSDLSPSLQTLRSYGLIDIRPSIELTQKKHTKIYDDFENSTYFKTLKYNLNSFFANSSFFKDTGFSIISIRGSIHVTDLGFLFCSKIFSSEEE”, the “soluble on expression in E. coli” value is reported as “not soluble”.
With “MSLKNKLQVKIPGKLYVAGEYAVVESGHTAILTAVNRYITLTLEDSERNELWIPHYENPVSWPIGGELKPDGEHWTFTAEAINIATTFLKSEGIELTPVKMVIETELIDQSGAKYGLGSSAAATVAVINALMTKFYPEISMLKKFKLAALSHLVVQGNGSCGDIASCMYGGWIAYTTFDQEWVKHRLAYKSLEWFMKEPWPMLQIETLEEPVPTFSVGWTGTPVSTGKLVSQIHAFKQEDSKNYQHFLTRNNEIMKQIIQAFHTKDEELLYSSIKENRRILQELGTKAGVNIETSLLKELADSAENMGGAGKSSGSGGGDCGIAFSKTKELAEKLVNEWEKLGIKHLPFHTGRVQITEGHHHHHH” the entry was “soluble”; with “MIKEFCAENLTLLPTLDAGQISRVELCDNLAVGGTTPSYGVIKEACQLLHDKKISVATMIRPRGGDFVYNDLELKAMEEDILKAVEAGSDALVLGLLTTENQLDTDAIEQLLPATQGLPLVFHMAFDRIPTDHQHQALDQLIDYGFVRVLTHGSPEATPITDNVEQLKSLVTYANKRIEIMIGGGITAENCQSLSQLTGTAIVHGTKII”, “not soluble”; with “MGSDKIHHHHHHMTEKIRVAVVGAAGAFGMKHLDGLMNIPDVEVTVVSGTRLEPTQAVAEKYGVENAVVGLDAVLERDDVDAVILATPTGLHASQTQAVLAAGKHVQVEIPLADSIVDAEAALEAAESSNRVAMVGHTRRFNPSHQLVHNRIASGEFHVQQMDVQTYFFRRTNTNAKGEARSWTDHLLWHHAAHTVDLFAYQAGKIVHANAIQGPIHPELGIAMDMSIQLKSESGAICTLSLSFNNNGPFGTFFRYIGDTETYIARYDDLYNGREEPIDVSHVAVSMNGIELQDREFISAIREGREPNSSLRHVIDCYRVLGSLEKQLS”, “not soluble”.
For the sequence “MTPVQIAAVVVTYESSSTIDACLSRLRAAEGISEIRVVDNASSDDTLEVVQRHALADARLHFIANPDNPGFATACNQGARDSQAPWLVFINPDLMIARDTLLQLYHRAAGHPAVLLGVEQVDEQGRPDAAVRRRDPDFAAMLRAPRAAANLAVPADPSRALQPVDAISGALMLMQRSLFDRLDGWDGSYRLHAEDLDLCRRARQAGALVAVANDLHVLHVRGVSSRARPFFVEWHKHRGLWRYFRKFEADRRGLLTRLGVWLAIWSHAAAQVPRLLQNKLEHHHHHH”, the “soluble on expression in E. coli” value is given as “not soluble”.
With “MPEAVVLINSASDANSIEQTALPVPMALVHRTRVQDAFPVSWIPKGGDRFSVTAVLPHDHPFFAPVHGDRHDPLLIAETLRQAAMLVFHAGYGVPVGYHFLMATLDYTCHLDHLGVSGEVAELEVEVACSQLKFRGGQPVQGQVDWAVRRAGRLAATGTATTRFTSPQVYRRMRGDFATPTASVPGTAPVPAARAGRTRDEDVVLSASSQQDTWRLRVDTSHPTLFQRPNDHVPGMLLLEAARQAACLVTGPAPFVPSIGGTRFVRYAEFDSPCWIQATVRPGPAAGLTTVRVTGHQDGSLVFLTTLSGPAFSGAAALEHHHHHH” the entry was “not soluble”.
